Our source for the Kd values is paper PMC5607963.

This assay deals with F-actin polymerized from rabbit skeletal muscle G-actin, stabilized with phalloidin (rabbit), P68135. The assay is described as follows: co-sedimentation. Particulars: remark: other sources report otherwise.

B1: αE-catenin homodimer, P26231 1-906 (natural protein)
chain: MTAVHAGNINFKWDPKSLEIRTLAVERLLEPLVTQVTTLVNTNSKGPSNKKRGRSKKAHVLAASVEQATENFLEKGDKIAKESQFLKEELVVAVEDVRKQGDLMKSAAGEFADDPCSSVKRGNMVRAARALLSAVTRLLILADMADVYKLLVQLKVVEDGILKLRNAGNEQDLGIQYKALKPEVDKLNIMAAKRQQELKDVGNRDQMAAARGILQKNVPILYTASQACLQHPDVAAYKANRDLIYKQLQQAVTGISNAAQATASDDAAQHQGGSGGELAYALNNFDKQIIVDPLSFSEERFRPSLEERLESIISGAALMADSSCTRDDRRERIVAECNAVRQALQDLLSEYMGNAGRKERSDALNSAIDKMTKKTRDLRRQLRKAVMDHVSDSFLETNVPLLVLIEAAKNGNEKEVKEYAQVFREHANKLIEVANLACSISNNEEGVKLVRMSASQLEALCPQVINAALALAAKPQSKLAQENMDLFKEQWEKQVRVLTDAVDDITSIDDFLAVSENHILEDVNKCVIALQEKDVDGLDRTAGAIRGRAARVIHVVTSEMDNYEPGVYTEKVLEATKLLSNTVMPRFTEQVEAAVEALSSDPAQPMDENEFIDASRLVYDGIRDIRKAVLMIRTPEELDDSDFETEDFDVRSRTSVQTEDDQLIAGQSARAIMAQLPQEQKAKIAEQVASFQEEKSKLDAEVSKWDDSGNDIIVLAKQMCMIMMEMTDFTRGKGPLKNTSDVISAAKKIAEAGSRMDKLGRTIADHCPDSACKQDLLAYLQRIALYCHQLNICSKVKAEVQNLGGELVVSGVDSAMSLIQAAKNLMNAVVQTVKASYVASTKYQKSQGMASLNLPAVSWKMKAPEKKPLVKREKQDETQTKIKRASQKKHVNPVQALSEFKAMDSI
As usually defined, the Kd is the concentration at which binding is half-saturated. Molecule B1 came in with a dissociation constant Kd of 2.9 µM.
